Reference: the supplement of paper PMC12636428

Test system: Saccharomyces cerevisiae
Experiment: transcriptional activation domain activity (GFP:mCherry ratio, weighted mean of sorted bins, harmonized to initial dataset scale) (arbitrary fluorescence ratio units); higher = stronger transcriptional activation
Settings: beta-estradiol 1 µM; induction time 4 h
How it was run: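 Protein tiles carrying barcodes and fused to an estradiol-inducible synthetic transcription factor were placed at the URA3 locus of yeast diploids with a GFP reporter. Following 4 hours at 30 °C in SC with 1 uM beta-estradiol, cells were sorted into 8 GFP:mCherry bins, barcodes were sequenced, and tiles with fewer than 50 reads were discarded. Activation activity is given as the read-weighted mean of bin median fluorescence, averaged across barcodes and linearly mapped to the initial dataset scale.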

| Sequence | transcriptional activation domain activity |
| --- | --- |
| MRAVDIPSLAFNAVGVSNHGIQQMPVAEFATVMKSLVTILLKSMPLDKEKRYQ | 38900 |
| MRQVHIVFSGRDSGRESDIEVVSETSVFHDAAFVLGCVLVRGRSFAAPLLTAL | 32700 |
| MVFFFFFFHSVEFHFFLWYLSFFRFFFVFLLFPWLDWIGRAGIGLELLLSLFI | 47400 |
| RRVTGKVLLLVWKLGVRPRLNVFEGVVHRLAVAGCFSQIPPAVALCRRILNRI | 59000 |
| AAINGSANGKRRRTKEDGGEKADGRAGPKSENVVLQKTIEHIHGLLQHKSVLL | 45900 |
| CCIRNSLFQEDSKCIKQQPDLLSEQTAPFPILEDQCPALNLDRSNNDLLLQNN | 35300 |
| RLLIVFAWMCRLGCWIEMDHEARLVLLKFLATFKANSNNVISYKLDQYYLTGL | 80100 |
| TTLVNTTAPYFPYSFSALEGSTFNGFSFDQTMFDLFLEVWEQTDPLMNYLFDF | 162000 |
| ISNHQVYADWWYAWCLTYFMGTHKDIFIVLKKSLKWLPIVGWGMQFFNFIFLA | 48400 |
| RGSYRLFLIHARLICTIHPLHLPLLYFPAYSMCILYPTPTYITSCSLLAVSFV | 55700 |
| RGGGRKKKEADGEDGETTPKKTPRKRAAKEAEDGDASPKKKGRPAKAKPRQEP | 17900 |
| MGLLGGRRAADYYLFLFFLFFFYLSLFSPRFSSFLHFPSYIELVGFFFFLLRL | 36700 |
| SIFVVFFISFVPLVVQELTERGFWRAATRLAKHFGSLSFLFEVFVCQVYANSL | 65500 |
| RMLFPNVQELHWEAQNFEKSPLLNMFMGLHLTEIYFTFSAGSYAQMTWIPIMY | 33300 |
| MDTSNSWFDASKVQSLNFDLQTNSYYSNARGSDPSSYAIEGEYKTLATDDLGN | 14200 |
| MMFETHFWSLSSLLLFFFSFFLFLSLYLGVSILFFQFPFPFPFPFPFFFYLFL | 39500 |
| LLVTLMQVPDTDQVVLFNKVLSVIVLVMAHHHELGGPRFDQRPFLRLFSSILA | 43800 |
| AASETTAKKSRGRKRKTVPEPDCDDEDNTGAARCSQPRSRKRARTTAPAEPRE | 12200 |
| MSDWEEKWSKSRNRPYYFNKTTNESVWDKPDGFDGPAAKPPGSEGKVRASHLL | 38300 |
| MPFRNCFACIICCSWLLYLDVLLILSMYSIYFMGGFARYLFWFIYWFFGIMEL | 44800 |
| MNYLELSLVILTCLWDILLVVTFCSYRRIFRRVNMVNIMTISLLKHLSVFCLF | 52300 |

| Sequence | transcriptional activation domain activity |
| --- | --- |
| IKLMDLLIILLKIHGFRLKYFLLTNDLFPKIMLLCRANHLSLQLCPVRFLRIC | 81100 |
| MIGHWFVLLNLISNWIVLSSFSILFYIYIYMPLYCHYAPFIFMLFLLYIPLLI | 48800 |
| QRGVGTGVLKVGVDGGGHDEERIRWEAEMVGRERNWVLKKFLGQAISSQLDHA | 44800 |
| MIEMMAFRIALGFVGGLGLDGVWCGFFFPFKFVVFSFLHTLSISLGLDFFFLL | 91700 |
| MVHIRTVVSFIFLVAGVLWTLFYLFIYFCLWDRRGHYVFLFCFCGCSRFMHFV | 56500 |
| MLSHLVVSTPHCSIMFGPSMDWTRVFAFFLLLRFSLHWISNNCFVSPLLLLCY | 69800 |
| QLFTFLLQTYRMKYLVQRVSPRTIRQINDVRLRHLSYKLRQRLIWFADIMRSY | 58900 |
| EYAPKTPVVAAAVPKEEKKEEKAEEVKEAKEEENKEIKDEKKDTRKSRSASRK | < 6570 |
| MWVGELLGYYCTMALSKALGCKVRLLRAWAEMHNICGFYSRDSIPCRMYASRV | 61800 |
| SDDVNSTMEDDDTPIEKHWLNIDQPLGSEKETTTLSILWMLLLLQLSHICTDP | 76600 |
| PGKCINEFIEVVCKLADSGRLSLRMLVDIVVLFWNLTRVHCEQFSHKFLRLLH | 15900 |
| SATPATSEAAKPATSSLFGNGSSTTTAGATAAKPSLFGAAQSTPTTQPATTGA | 38800 |
| YIPEHLRSYVLVAHLLEMCNLHTVFLPQLLDPLIVLCLQHRLTIQAFAFIKTR | 77300 |
| MPPCGLVSLTCLTELVLGLNITACVVILVDGNHLIYILSLFFWCWILLTLPAT | 35500 |
| VDILLKRISTFSYTDSLTMSVAGQLRILYRFINVFYTARDLIGFLALVEKALD | 22700 |
| KQYCVRPNSGRIEPGKEVEVQVLLQAMREDPPPDARCRDKFLVQSVAMTGENE | 29400 |
| MEGLVVCSVWIFSCVWSLWLALCIWIFCLFVGVWLVRIWRGPGLYLLFFFFFL | 71000 |
| MLLKRVHSKVYVQDCLLIGGRSIFVLDMHLFFKLLLFTAASIRNQTVIMLIFV | 54100 |
| LLAVDPNVWSHFDIVVLEFSRHYIHFHWKSLLWLVGPVVVWGWMVCTLLVWFI | 49400 |
| MFLGFFFLFFYLFIMDHILDFWLLLRIIILIFAYSHCSFLRTLILFFRINFFF | 69000 |
| RGGKGVEEERGEGGGRGEGERGQGGRGRGGRGAGARGRGGTGEEGEGAGGKQE | 51400 |

| Sequence | transcriptional activation domain activity |
| --- | --- |
| NNSINATPIVDNSSGSQLPNGFDRGQANNTPFPGYFGGLDLFDYDFLFGNDFA | 133000 |
| TLLASFVIDHLKEGVASDEIVLFAFADFQDTRSTNVVVLLRTLLAQLLDRCKP | 65200 |
| FTSIMMTLVSLVQVGLLQFQCRDLLLCGIYIFYCLIKVPYLSLICSATLLVYG | 44300 |
| KGDLESFRRITDLNLTHEHARWFCRYHMFYQLGNYCEIYLWRSIFRKVFLLTG | 54700 |
| TESVCWDFVWLTFYFTFGLTSLITSWAALPPLSQWSLSFGQLVPIFLLLFFLT | 46700 |
| MIPSVMIRTSDYSLVIILSLCLVLKMMLICIVCSIESYLTNLDKWLFCLILCK | 51300 |
| SGGEGTRRRASGRGRGRGRGRNGRGARAARGDGEKKEGETTEAAAPTSGETPA | 34800 |
| FNNDGWDTSLPIDFDFDEFNTETTDFDDFLKLLGDNSPSKEQKSLSYSPTATG | 162000 |
| NWYWLATTMYFLYGETVIYYFKHIVLVDKVLLPLATHHRFISFILYVFGFVFF | 58300 |
| YSIYVYRYFLYQWGDLCYMALHPTTSSLIGVIVCKLEPHRSGPFRGYIAMLAV | 42600 |
| MLPQLIWGCFIFGLASILLCVTFIPNPSHGYIRMRQSYNSFKLYIFGPSFTYL | 74800 |
| KSKSSRSSRRREGEEDDDRRRRRHRHRSRSHSRGRDGDNDDPKEKRRSRRHDD | 38400 |
| ITQMQQTDFYHVDQDDYVHSFVIHNSRLMWNVAIRAIVMRFIELQSQASLLQY | 51800 |
| AEPSIYSNLFLDARLPNNANSTTGLNDNDYNLDDTNNDNTNSMQSILEDFVSS | 75100 |
| TSSTNHFYGTVVKTKDLLPIYLDVVLWMLKRDLLVTLHLRVRIVVPAELKERA | 59600 |
| MFGKRFIYCLSIIDYGISPHEGITGFILCVCVVYFLECGFCYCWHSRRTSMSW | 64400 |
| PPPPPPPPPPAGRGGGAPPPHAISGGAPPPPPTPPPPPPPPPPPGVVPVPPPP | 41600 |
| TTLTEKGSQVMEKNMDQLDSVHNLNDDDLQQLLEDLGNIDHSDEKLWKEITDQ | 93200 |
| KKEEEGEESEPEKLPKSTKRGRKKVEEEVKAEGEEEEEEAPVAKKQKPAANGS | < 6570 |
